From article PMC4072508, “Genome-Wide Prediction and Validation of Peptides That Bind Human Prosurvival Bcl-2 Proteins” (PLoS Computational Biology, 2014) come the findings set out here.

Holding throughout (experiment): peptide SPOT array, c-Myc-tagged receptor at 1 uM or 100 nM, anti-c-Myc-Cy3
One assay addresses Bcl-2, P10415.
The target of a further assay is T1, Bcl-w, Q92843.
T1 chain: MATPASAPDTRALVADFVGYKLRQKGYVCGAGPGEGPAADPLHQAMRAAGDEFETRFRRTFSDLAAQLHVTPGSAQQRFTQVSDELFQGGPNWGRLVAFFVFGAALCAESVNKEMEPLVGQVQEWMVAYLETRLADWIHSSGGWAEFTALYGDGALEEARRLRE

The next assay has as its target Bcl-xL, Q07817.
A further assay deals with T2, Bfl-1, Q16548.
T2 chain: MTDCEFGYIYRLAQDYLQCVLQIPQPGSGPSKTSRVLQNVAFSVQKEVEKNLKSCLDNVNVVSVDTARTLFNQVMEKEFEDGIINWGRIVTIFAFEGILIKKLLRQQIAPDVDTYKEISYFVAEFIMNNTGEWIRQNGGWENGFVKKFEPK

For another assay, the target named is T3, Mcl-1, Q07820.
T3 chain: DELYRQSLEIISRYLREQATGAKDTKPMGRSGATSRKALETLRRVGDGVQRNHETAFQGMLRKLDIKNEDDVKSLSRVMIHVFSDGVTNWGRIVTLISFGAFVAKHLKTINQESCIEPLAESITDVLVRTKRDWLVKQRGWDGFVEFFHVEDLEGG

Sequence of Bcl-xL, Q07817 (Q07817 1-209): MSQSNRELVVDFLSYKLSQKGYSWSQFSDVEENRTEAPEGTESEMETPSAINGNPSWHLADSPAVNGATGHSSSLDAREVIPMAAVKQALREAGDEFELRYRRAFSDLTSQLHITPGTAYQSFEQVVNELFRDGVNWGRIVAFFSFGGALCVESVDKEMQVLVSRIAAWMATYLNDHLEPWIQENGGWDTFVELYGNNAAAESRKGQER
Sequence of Bcl-2, P10415 (P10415 1-217): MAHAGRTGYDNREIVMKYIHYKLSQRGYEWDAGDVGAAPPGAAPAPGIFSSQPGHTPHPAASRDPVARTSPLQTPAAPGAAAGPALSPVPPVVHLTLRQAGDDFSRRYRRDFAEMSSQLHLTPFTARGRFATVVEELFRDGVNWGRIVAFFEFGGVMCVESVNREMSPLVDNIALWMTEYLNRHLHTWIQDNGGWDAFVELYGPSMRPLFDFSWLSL

For the molecule DGLDLPSETDLRILGCELIQAAGILL [CCNL1], the SPOT signal as a fraction of Bim BH3's signal on the same receptor and array was 0.01 with Bcl-2, P10415; 0.01 in the assay with Bcl-w, Q92843; 0.03 in the assay with Bcl-xL, Q07817; 0.01 with Bfl-1, Q16548; 0.03 with Mcl-1, Q07820.

For the molecule MRPEIWIAQEDRRIGDEFNAYYARRV [BCL2L11], the SPOT signal as a fraction of Bim BH3's signal on the same receptor and array with Bcl-2, P10415 worked out at 0.05; with Bcl-w, Q92843, 0.06; with Bcl-xL, Q07817, 0.09; with Bfl-1, Q16548, 0.05; with Mcl-1, Q07820, 0.05.

For LCKEKPTTALLDKVADNLAIQLAAVT [ILF3], the SPOT signal as a fraction of Bim BH3's signal on the same receptor and array with Bcl-2, P10415 was determined as 0.01; with Bcl-w, Q92843, 0.02; with Bcl-xL, Q07817, 0.03; with Bfl-1, Q16548, 0.02; in the assay with Mcl-1, Q07820, 0.02.

With DAIIQMIVELLKRVGDQWEEEQSLAS [C6orf222], the SPOT signal as a fraction of Bim BH3's signal on the same receptor and array in the assay with Bcl-2, P10415 was determined as 0.01; with Bcl-w, Q92843, 0.33; in the assay with Bcl-xL, Q07817, 0.16; with Bfl-1, Q16548 it was 0.06; in the assay with Mcl-1, Q07820, 0.09.

Consider FSVDLNASRSLSQVAMDLHEAVSMKL [DCST2], for which the SPOT signal as a fraction of Bim BH3's signal on the same receptor and array with Bcl-2, P10415 was 0.01; with Bcl-w, Q92843 it was 0.03; with Bcl-xL, Q07817, 0.03; with Bfl-1, Q16548 it was 0.08; with Mcl-1, Q07820, 0.06.

With PFKKMDFSRNLYDIGEQLDSEDLASL [CASP8], the SPOT signal as a fraction of Bim BH3's signal on the same receptor and array in the assay with Bcl-2, P10415 stood at 0.02; with Bcl-w, Q92843, 0.03; in the assay with Bcl-xL, Q07817, 0.07; in the assay with Bfl-1, Q16548 it was 0.02; with Mcl-1, Q07820, 0.05.

With NRKGEKNGKGLRHFSMKVCEKVQRKG [TFDP1], the SPOT signal as a fraction of Bim BH3's signal on the same receptor and array in the assay with Bcl-2, P10415 turned out to be 0.18; with Bcl-w, Q92843 it was 0.91; with Bcl-xL, Q07817, 0.54; with Bfl-1, Q16548, 0.52; with Mcl-1, Q07820, 0.3.

In the case of LNELYQRAKKLSKAGDNIPEEQPVAS [TMX2], the SPOT signal as a fraction of Bim BH3's signal on the same receptor and array with Bcl-2, P10415 is 0.02; with Bcl-w, Q92843 it was 0.07; in the assay with Bcl-xL, Q07817 it was 0.13; with Bfl-1, Q16548, 0.07; with Mcl-1, Q07820, 0.05.

NMSNYSSSSLLSGAGKDSLVEHDEEF [KIAA0367]: the SPOT signal as a fraction of Bim BH3's signal on the same receptor and array was determined as 0.01 with Bcl-2, P10415; 0.02 with Bcl-w, Q92843; 0.03 with Bcl-xL, Q07817; 0.01 with Bfl-1, Q16548; 0.02 with Mcl-1, Q07820.

For the molecule EGMRTILVDWLVEVGEEYKLRAETLY [CCNA1], the SPOT signal as a fraction of Bim BH3's signal on the same receptor and array worked out at 0.01 in the assay with Bcl-2, P10415; 0.02 with Bcl-w, Q92843; 0.05 with Bcl-xL, Q07817; 0.02 in the assay with Bfl-1, Q16548; 0.05 with Mcl-1, Q07820.

Turning to SCMATVIHNPLKALGDQFYKEAIEHC [DPF3], the SPOT signal as a fraction of Bim BH3's signal on the same receptor and array with Bcl-2, P10415 was found to be 0.15; with Bcl-w, Q92843, 0.2; in the assay with Bcl-xL, Q07817 it was 0.13; with Bfl-1, Q16548, 0.03; in the assay with Mcl-1, Q07820 it was 0.02.

As to KWTAEEVVLWLEQLGPWASLYRERFL [BFAR], the SPOT signal as a fraction of Bim BH3's signal on the same receptor and array with Bcl-2, P10415 came to 0.02; in the assay with Bcl-w, Q92843, 0.03; with Bcl-xL, Q07817 it was 0.07; with Bfl-1, Q16548, 0.04; with Mcl-1, Q07820 it was 0.05.

For DQEEACASRQLHSLASFSTVTARRNP [INCA1], the SPOT signal as a fraction of Bim BH3's signal on the same receptor and array in the assay with Bcl-2, P10415 came to 0.08; with Bcl-w, Q92843, 0.2; with Bcl-xL, Q07817 it was 0.12; in the assay with Bfl-1, Q16548, 0.35; with Mcl-1, Q07820, 0.23.

In the case of GAQHSTMTSTLRRLGEDIFKGVVTKG [CCDC138], the SPOT signal as a fraction of Bim BH3's signal on the same receptor and array amounted to 0.09 with Bcl-2, P10415; 0.64 in the assay with Bcl-w, Q92843; 0.12 with Bcl-xL, Q07817; 0.45 with Bfl-1, Q16548; 0.43 in the assay with Mcl-1, Q07820.

KFMKTIPGTALVEMGDEYAVERAVTH [HNRPLL]: the SPOT signal as a fraction of Bim BH3's signal on the same receptor and array with Bcl-2, P10415 came to 0.01; with Bcl-w, Q92843, 0.02; in the assay with Bcl-xL, Q07817 it was 0.04; in the assay with Bfl-1, Q16548 it was 0.02; with Mcl-1, Q07820 it was 0.02.

In the case of DATHDEAVQALKRAGKEVLLEVKYMR [SNTB1], the SPOT signal as a fraction of Bim BH3's signal on the same receptor and array was determined as 0.01 in the assay with Bcl-2, P10415; 0.02 in the assay with Bcl-w, Q92843; 0.04 with Bcl-xL, Q07817; 0.03 with Bfl-1, Q16548; 0.02 with Mcl-1, Q07820.

With VIKQRRLPDQLSKLADRIQLSGRYYL [RAPGEF2], the SPOT signal as a fraction of Bim BH3's signal on the same receptor and array with Bcl-2, P10415 is 0.49; with Bcl-w, Q92843, 1.08; with Bcl-xL, Q07817, 1.08; with Bfl-1, Q16548 it was 0.91; with Mcl-1, Q07820 it was 0.69.

Take ELLRLRQHWKLRKVGDKILGDLSYRS [MED17]: the SPOT signal as a fraction of Bim BH3's signal on the same receptor and array in the assay with Bcl-2, P10415 worked out at 0.33; with Bcl-w, Q92843 it was 1.03; with Bcl-xL, Q07817 it was 0.89; with Bfl-1, Q16548, 0.78; in the assay with Mcl-1, Q07820, 0.48.

Turning to DLSSTFVSLALRKVGDWPLSARREKG [TTC31], the SPOT signal as a fraction of Bim BH3's signal on the same receptor and array with Bcl-2, P10415 came to 0.2; with Bcl-w, Q92843 it was 1.09; with Bcl-xL, Q07817, 0.29; with Bfl-1, Q16548, 0.75; with Mcl-1, Q07820, 0.47.
